Consider three substances from publication PMC3437384.

As usually defined, the Kd is a measure of binding affinity in units of concentration.

Experiment [1] concerns the target cTnI switch peptide 147-163 (Homo sapiens) (UniProt P19429). Nature of the experiment: NMR. The following applies: cited from earlier work.
Experiment [2] has as its target N-domain of cardiac troponin C with the L48Q mutation, cNTnC(L48Q) (UniProt P63316). The experiment is described as follows: NMR titration.
Experiment [3] concerns the target cardiac troponin I (cTnI), rat wild type (rat) (UniProt P23693). The experiment is described as follows: ITC. (ITC needs no label: the signal is the heat of the interaction.)

cardiac troponin I (cTnI), rat wild type (rat), sequence (P23693 whole entry): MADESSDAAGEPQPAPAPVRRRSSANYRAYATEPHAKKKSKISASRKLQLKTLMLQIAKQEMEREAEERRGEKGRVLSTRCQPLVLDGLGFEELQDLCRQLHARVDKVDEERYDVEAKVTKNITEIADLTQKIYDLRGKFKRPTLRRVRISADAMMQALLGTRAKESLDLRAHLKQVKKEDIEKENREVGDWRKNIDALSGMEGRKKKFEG

Take “cNTnC N-terminal domain (from UniProt P63316)”: the Kd in experiment [1] was 150 µM. On to “cTnI peptide corresponding to residues 147-163, cTnI_(147-163) switch peptide”, for which the equilibrium dissociation constant (Kd) in experiment [2] is 61 µM. In experiment [3], “cardiac troponin C L48Q variant, cTnC(L48Q) (from UniProt Q4PP99 1-161) (natural protein)” had a Kd of 0.132 µM and a dH of -5.28 kcal/mol.
